Assay results published in patent US20220031803A1, “ANTIBACTERIAL COMPOSITION COMPRISING MICROCIN S AND ANTIBIOTIC” (priority 2017, published 2022).

Tested on: E. coli BL21 (DE3)+kan^R
Type: cell-based, Escherichia coli
Conditions: OD600 growth curve, 37° C., 96-well plates, duplicates averaged
Protocol: Growth was determined by measurement of the optical density at 600 nm (OD600) for 18 hours in 96-well plates at 37° C. The profile of the OD600 curves corresponds to the bacterial growth. […] Each sample was prepared in duplicate and the results averaged.
Antimicrobial activity was investigated in a 96-well plate by incubating E. coli BL21 (DE3)+kan^R bacteria either with microcin S alone or with microcin S and an antibiotic at 37° C. for 18 h.
To investigate whether microcin S in combination with antibiotics can likewise achieve synergistic effects on sensitive bacteria, growth profiles of the microcin S-sensitive indicator strain Escherichia coli BL21 (DE3) provided with a kanamycin resistance gene are recorded photometrically in a microtitre plate of 96-well format. […] After loading with the individual samples, the microtitre plate is incubated directly in a photometer (Epoch2 microplate reader from Biotek, USA) at 37° C. and 200 rpm (double-orbital, ∞) for 15 h. The optical density at 600 nm wavelength (OD600) is measured simultaneously for all wells at regular intervals. The graphic evaluation of the recorded measurement points is done subsequently with the aid of Microsoft Excel (Microsoft Corporation, USA). […]

B1: Microcin S: Antimicrobial polypeptide of E. coli G3/10 (SEQ ID NO: 7), prepared in a cell-free E. coli based in vitro expression system (protein, listed as Escherichia coli)
chain: NANSNYEGGGSRSRNTGARNSLGRNAPTHIYSDPSTVKCANAVFSGMVGGAIKGGPVGMTRGTIGGAVIGQCLSGGGNGNGGGNRAGSSNCSGSNVGGTCSR
Time of incubation after which the antibacterial effect is observed (collapse of bacterial growth): 5 h
